Test [1] concerns the target Crotalus durissus terrificus (C.d.t.) venom. The test can be described thus: ELISA, C.d.t. venom coat, 1:5. On the technique in general: In an ELISA, binding on a coated surface is turned into a signal by an enzyme label.
The target is the same in test [2]. The test can be described thus: ELISA, C.d.t. venom coat, undiluted.
Test [3] shares this target. Kind of test: ELISA, C.d.t. venom coat, 1:25.
The target is the same in test [4]. The test can be described thus: ELISA, C.d.t. venom coat, 1:625.
The target is the same in test [5]. The test can be described thus: ELISA, C.d.t. venom coat, 1:312,500.
Test [6] shares this target. Kind of test: ELISA, C.d.t. venom coat, 1:62,500.
Test [7] shares this target. Kind of test: ELISA, C.d.t. venom coat, 1:3125.
Test [8] has the same target. The test can be described thus: ELISA, C.d.t. venom coat, 1:125.
The target is the same in test [9]. The test can be described thus: ELISA, C.d.t. venom coat, 1:625. This is another data set of the same source.
Test [10] shares this target. Kind of test: ELISA, C.d.t. venom coat, 1:125. The source holds these as a separate data set.
Test [11] has the same target. Kind of test: ELISA, C.d.t. venom coat, 1:25. The source holds these as a separate data set.
Test [12] has the same target. Kind of test: ELISA, C.d.t. venom coat, 1:3125. The source holds these as a separate data set.

Regarding preimmune IgY (antibody), the ELISA absorbance was under 0 OD in [1]; 0.003 OD in [2]; 0.016 OD in test [3]; 0 OD in [4]; 0.01 OD in test [5]; 0.001 OD in test [6]. The ELISA absorbance in [7] is 0.002 OD; in [8] it was under 0 OD; in test [9], under 0 OD; in test [10] it was 0.003 OD; in test [11] it was 0 OD; in [12], under 0 OD.

For the origin of these results see patent US20040253673A1.
